In US5976495A, “Peptide derived radionuclide chelators” (Resolution Pharmaceuticals, Inc., priority 1996, dated 1999):
No end group written: not given here. *: point of attachment. Acm = CC(=O)NC*

Test system: focal inflammation in the leg (zymosan-injected left hindleg)
Assay type: in vivo, male Wistar rats
Settings: rat; for Fluid:Blood (inflammatory exudate:blood) / Inflam:Uninfl (inflamed:uninflamed muscle, target to background ratio): i.v. via tail vein, 30 minutes, average of two rats; for Inflam:Uninfl (inflamed:uninflamed muscle, target to background ratio): corrected for residual dose in the tail; for GI Tract (% dose) / Liver (% dose) / Urine (% dose): in vivo, iv
Protocol: Rat inflammation studies were performed as follows.
Serial whole-body scintigrams were acquired at 30 minutes.

Substance | Fluid:Blood (inflammatory exudate:blood) | Inflam:Uninfl (inflamed:uninflamed muscle, target to background ratio) | GI Tract (% dose) | Liver (% dose) | Urine (% dose)
N,N-dibenzylGly-Ser-Cys(Acm)-Gly-Thr-Lys-Pro-Pro-Arg ({N,N‑dibenzyl}-GSC(Acm)GTKPPR) | 0.4 | 3.7 | 7.5 | 2.3 | 55.1
N,N-dimethylGly-Ser-Cys(Acm)-Gly-Thr-Lys-Pro-Pro-Arg ({N,N‑dimethyl}-GSC(Acm)GTKPPR) | 1.9 | 5.3 | 2.8 | 2.4 | 63.5
N,N-dimethylGly-Thr-Cys(Acm)-Gly-Thr-Lys-Pro-Pro-Arg ({N,N‑dimethyl}-GTC(Acm)GTKPPR) | 1.6 | 4.6 | 2.5 | 2.4 | 
